Laboratory results: the RNAGym collection of RNA variant scans (doi:10.1093/molbev/msab373)

B1: Azoarcus group I ribozyme (parent)
chain: GUGCCUUGCGCCGGGAAACCACGCAAGGGAUGGUGUCAAAUUCGGCGAAACCUAAGCGCCCGCCCGGGCGUAUGGCAACGCCGAGCCAAGCUUCGGCGCCUGCGCCGAUGAAGGUGUAGAGACUAGACGGCACCCACCUAAGGCAAACGCUAUGGUGAAGGCAUAGUCCAGGGAGUGGCGAAAGUCACACAAACCGG

Variants of: B1
Experiment: reverse-splicing fitness (ratio to wild type); higher = more active; in vitro selection; Mg2+ level not given
Procedure, shortened: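 An in vitro group I ribozyme library with randomized positions was T7-transcribed and gel-purified. In triplicate, 10 pmol RNA in EPPS pH 7.5 was reacted with 50 pmoles of a 30-nt RNA substrate for 1 h at 37 °C across several added MgCl2 levels (1–48 mM), then stopped with EDTA. Products were reverse transcribed from a substrate-complementary primer, PCR-amplified and sequenced (HiSeq 4000). Fitness is a variant's read proportion after selection over that before, normalised to wild type.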
For C82U A111G A120U C150A C169G U176A, the reverse-splicing fitness was 0.0073.
In the case of C82U A111G A120U C150A C169G U176C, the reverse-splicing fitness is reported as 0.00439.
Work on C82U A111G A120U C150A C169G U176G yielded a reverse-splicing fitness of 0.00213.
C82U A111G A120U A145U C150G C169G gave a reverse-splicing fitness of 0.00266.
In the case of C82U A111G A120U A145U C150G C169U, the reverse-splicing fitness is reported as 0.00235.
For C82U A111G A120U A145U C150G C169A, the reverse-splicing fitness was 0.00272.
For C82U A111G A120U A145G C169A U176G, the reverse-splicing fitness was 0.00159.
C82U A111G A120U A145G C169A U176C gave a reverse-splicing fitness of 0.00292.
Work on C82U A111G A120U A145G C169A U176A yielded a reverse-splicing fitness of 0.00258.
Variant C82U A111G A120U A145U C150U C169G U176C has a reverse-splicing fitness of 0.00294.
C82U A111G A120U A145U C150U C169G U176A showed a reverse-splicing fitness of 0.0026.
In the case of C82U A111G A120U A145U C150U C169G U176G, the reverse-splicing fitness is reported as 0.00172.
In the case of C82U A111G A145U C150A, the reverse-splicing fitness is reported as 0.0335.
Variant C82U A111G A145U C150U has a reverse-splicing fitness of 0.276.
Variant C82U A111G A145U C150G has a reverse-splicing fitness of 0.0379.
Variant C82U A111G A120U A145G C150G U176G has a reverse-splicing fitness of 0.00276.
Variant C82U A111G A120U A145G C150G U176C has a reverse-splicing fitness of 0.00719.
With C82U A111G A145U C150U C169G U176G the reverse-splicing fitness was 0.00489.
C82U A111G A145U C150U C169G U176C showed a reverse-splicing fitness of 0.0105.
C82U A111G A145U C150U C169G U176A gave a reverse-splicing fitness of 0.0118.
With C82U A111G A145C C150A C169G U176G the reverse-splicing fitness was 0.0054.
With C82U A111G A145C C150A C169G U176C the reverse-splicing fitness was 0.0112.
Variant C82U A111G A145C C150A C169G U176A has a reverse-splicing fitness of 0.0215.
C82U A111G A145G C150A C169A U176G gave a reverse-splicing fitness of 0.00546.
C82U A111G A145G C150A C169A U176A showed a reverse-splicing fitness of 0.0187.
Work on C82U A111G A145G C150A C169A U176C yielded a reverse-splicing fitness of 0.0247.
C82U A111G A120U C150G U176C gave a reverse-splicing fitness of 0.0053.
For C82U A111G A120U C150G U176G, the reverse-splicing fitness was 0.00216.
For C82U A111G A120U C150G U176A, the reverse-splicing fitness was 0.00422.
C82U A111G A120U A145U C169G showed a reverse-splicing fitness of 0.00313.
C82U A111G A120U A145U C169A gave a reverse-splicing fitness of 0.00249.
For C82U A111G A120U A145U C169U, the reverse-splicing fitness was 0.00467.
With C82U A111G A145G C169U U176A the reverse-splicing fitness was 0.0117.
Variant C82U A111G A145G C169U U176G has a reverse-splicing fitness of 0.0046.
C82U A111G A145G C169U U176C showed a reverse-splicing fitness of 0.0129.
For C82U A111G A145C C150G C169U U176C, the reverse-splicing fitness was 0.00873.
For C82U A111G A145C C150G C169U U176G, the reverse-splicing fitness was 0.00478.
C82U A111G A145C C150G C169U U176A showed a reverse-splicing fitness of 0.00744.
With C82U A111G A120U A145G C150U C169A U176C the reverse-splicing fitness was 0.00369.
Work on C82U A111G A120U A145G C150U C169A U176G yielded a reverse-splicing fitness of 0.00217.
For C82U A111G A120U A145G C150U C169A U176A, the reverse-splicing fitness was 0.00487.
With C82U A111G A145C the reverse-splicing fitness was 0.406.
Variant C82U A111G A145U has a reverse-splicing fitness of 0.462.
With C82U A111G A145G the reverse-splicing fitness was 0.433.
Variant C82U A111G A120U A145U C150A C169A U176A has a reverse-splicing fitness of 0.00277.
C82U A111G A120U A145U C150A C169A U176C gave a reverse-splicing fitness of 0.00251.
C82U A111G A120U A145U C150A C169A U176G gave a reverse-splicing fitness of 0.00195.
Work on C82U A111G A120U C169G U176C yielded a reverse-splicing fitness of 0.00265.
C82U A111G A120U C169G U176G showed a reverse-splicing fitness of 0.00183.
Work on C82U A111G A120U C169G U176A yielded a reverse-splicing fitness of 0.0028.
C82U A111G A145G C150G C169A showed a reverse-splicing fitness of 0.00883.
C82U A111G A145G C150G C169U showed a reverse-splicing fitness of 0.00891.
With C82U A111G A145G C150G C169G the reverse-splicing fitness was 0.007.
Variant C82U A111G A145G C169G has a reverse-splicing fitness of 0.00933.
Work on C82U A111G A145G C169A yielded a reverse-splicing fitness of 0.00814.
C82U A111G A145G C169U showed a reverse-splicing fitness of 0.0113.
For C82U A111G A145U C150U C169U U176C, the reverse-splicing fitness was 0.0118.
For C82U A111G A145U C150U C169U U176G, the reverse-splicing fitness was 0.0051.
C82U A111G A145U C150U C169U U176A gave a reverse-splicing fitness of 0.0117.
For C82U A111G A145G C150U C169G U176C, the reverse-splicing fitness was 0.0174.
Variant C82U A111G A145G C150U C169G U176G has a reverse-splicing fitness of 0.00547.
In the case of C82U A111G A145G C150U C169G U176A, the reverse-splicing fitness is reported as 0.0169.
Variant C82U A111G A145C C150G C169A has a reverse-splicing fitness of 0.00744.
Variant C82U A111G A145C C150G C169G has a reverse-splicing fitness of 0.00679.
C82U A111G A145C C150G C169U gave a reverse-splicing fitness of 0.00804.
With C82U A111G A120U A145U C150A U176G the reverse-splicing fitness was 0.00212.
Work on C82U A111G A120U A145U C150A U176C yielded a reverse-splicing fitness of 0.00416.
C82U A111G A120U A145U C150A U176A gave a reverse-splicing fitness of 0.00427.
In the case of C82U A111G A120U A145U C150A C169U, the reverse-splicing fitness is reported as 0.00292.
In the case of C82U A111G A120U A145U C150A C169G, the reverse-splicing fitness is reported as 0.00226.
C82U A111G A120U A145U C150A C169A gave a reverse-splicing fitness of 0.00228.
Variant C82U A111G A145G C150A U176C has a reverse-splicing fitness of 0.0481.
Work on C82U A111G A145G C150A U176A yielded a reverse-splicing fitness of 0.0328.
In the case of C82U A111G A145G C150A U176G, the reverse-splicing fitness is reported as 0.0108.
In the case of C82U A111G A145C C150A U176C, the reverse-splicing fitness is reported as 0.0142.
Variant C82U A111G A145C C150A U176G has a reverse-splicing fitness of 0.00788.
For C82U A111G A145C C150A U176A, the reverse-splicing fitness was 0.0156.
For C82U A111G A120U A145U C150A C169U U176G, the reverse-splicing fitness was 0.00158.
In the case of C82U A111G A120U A145U C150A C169U U176A, the reverse-splicing fitness is reported as 0.00278.
For C82U A111G A120U A145U C150A C169U U176C, the reverse-splicing fitness was 0.00216.
With C82U A111G A145U C150U C169A U176G the reverse-splicing fitness was 0.00546.
With C82U A111G A145U C150U C169A U176A the reverse-splicing fitness was 0.0115.
With C82U A111G A145U C150U C169A U176C the reverse-splicing fitness was 0.00733.
